Substrate in this data set: C[C@H](N)C(=O)O
Kind of data set: purified protein. The conditions noted are these: nonoxidized enzyme (no H2O2), amino acid activation, 2 mM ATP, 2 mM PPi, 10 mM MgCl2, pH 7.2, 37 °C.

Broadly, the Km is the concentration of substrate that gives half-maximal velocity. Usually kcat stands for the maximal rate divided by the concentration of active sites. The kcat/Km is the turnover number divided by the Michaelis constant.

B1: AlaRS (Escherichia coli K-12) (protein)
chain: SKSTAEIRQAFLDFFHSKGHQVVASSSLVPHNDPTLLFTNAGMNQFKDVFLGLDKRNYSRATTSQRCVRAGGKHNDLENVGYTARHHTFFEMLGNFSFGDYFKHDAIQFAWELLTSEKWFALPKERLWVTVYESDDEAYEIWEKEVGIPRERIIRIGDNKGAPYASDNFWQMGDTGPCGPCTEIFYDHGDHIWGGPPGSPEEDGDRYIEIWNIVFMQFNRQADGTMEPLPKPSVDTGMGLERIAAVLQHVNSNYDIDLFRTLIQAVAKVTGATDLSNKSLRVIADHIRSCAFLIADGVMPSNENRGYVLRRIIRRAVRHGNMLGAKETFFYKLVGPLIDVMGSAGEDLKRQQAQVEQVLKTEEEQFARTLERGLALLDEELAKLSGDTLDGETAFRLYDTYGFPVDLTADVCRERNIKVDEAGFEAAMEEQRRRAREASGFGADYNAMIRVDSASEFKGYDHLELNGKVTALFVDGKAVDAINAGQEAVVVLDQTPFYAESGGQVGDKGELKGANFSFAVEDTQKYGQAIGHIGKLAAGSLKVGDAVQADVDEARRARIRLNHSATHLMHAALRQVLGTHVSQKGSLVNDKVLRFDFSHNEAMKPEEIRAVEDLVNTQIRRNLPIETNIMDLEAAKAKGAMALFGEKYDERVRVLSMGDFSTELCGGTHASRTGDIGLFRIISESGTAAGVRRIEAVTGEGAIATVHADSDRLSEVAHLLKGDSNNLADKVRSVLERTRQLEKELQQLKEQAAAQESANLSSKAIDVNGVKLLVSELSGVEPKMLRTMVDDLKNQLGSTIIVLATVVEGKVSLIAGVSKDVTDRVKAGELIGMVAQQVGGKGGGRPDMAQAGGTDAAALPAALASVKGWVSAKLQ
B1: the Km was determined as 329 ± 84.6 µM, the kcat worked out at 16 s⁻¹ and the kcat/Km was found to be 48300 M⁻¹ s⁻¹.

The values above are taken from article PMC8857464.
